Assay results: a protein production outcome set (Wang et al. 2014)

Test: label from the status in PepcDB records

| Sequence | protein production |
| --- | --- |
| MPTVAPTTVKPTTIPKETTTIAFTTDSSIEKPFGLDVSQASVGYVNIVWGRGTIDCYNVYVDGERRRTGISAQSLKLPVYTEGTHTIAITTVVGTRESEKLEVQVAITGTGEKETEPETCPEELKPQLKKNVPLRDDRIAIELNNKTNGKYSDSEIYWCILGNNENNQLCYMDKDGNMIPASESLNTVEVNGTKYANIYHTLAESDHVYAPTIRSGRMYLSYGKPVYVKFNGSTGYAGPDLNNPGDVNANTLFEFAEFTIEGKNYWGNTTRVDYFCFPMVTRLIGGSLYGGYDNVVGDIGTRDEIFTAFKNEVPNEYKSLVRDDRIIAPCKSTFNVGQDNGNYFDNYINEFWNKYANEDLRFSSESGSFVGRVVGNQMRFTREGDSTVYYVDKPNTQEVLEGKGAFDRGNGVEKAIEAQLCAAFNRGVATEPDKWYTPSQYYKNSVANFYAGFFHEHSVLGKAYGFCYDDVNDQSTLLQYNKADALVIDLKW | failed |
| AGVSDTAASVCITITAPSKAWNIAGLKCAQIIFSNPSDAEHWQQLSPVIKDGASTLGLIAAEAAYRYGTDFLNQEVAYLKNNHDFLLHEIPKRIPGAKITPMQATYLMWIDFRDTTIEGSPSEFFIEKAKVAMNDGAWFGEDGTGFCRLNFATSREVLEEAIDRMAKAVSHHT | failed |
| MENQKMQEPLVYRRILLTVDEDDNTSSERAFRYATTLAHDYDVPLGICSVLESEDINIFDSLTPSKIQAKRKHVEDVVAEYVQLAEQRGVNQVEPLVYEGGDVDDVILEQVIPEFKPDLLVTGADTEFPHSKIAGAIGPRLARKAPISVIVVR | not failed |
| MPRRTATMLASTLMLIALLCAGVFIKVPYAEMSPGPTVNTLGEHDGEPVLQITGHKTYATTGHLNMTTVRVTSADYRMNLVEAVYGWLAHDNKVVPHDTLYPDGKTEEQSTQENAEEFSQSQESAKVAALKELDIPVKSWVIVSTVLKDSPAEGRLHAGDVIKAVDGTAVKAPDDVAELVTKHKPGDDVAFTILPAKEQAAAEKSKTYVPRTKKVTITTAKSDDTGAPRAIVGISAGTDHTFPFTVDIKLADVGGPSAGLMFALGIVDKLTPDDLTGGKFVAGTGTIDDDGKVGPIGGIEMKTVGAREKGAQYFLTPKDNCAAAAKDTPEGLTLVKVNTIDDALDALKDIRTGKTADLPKCTTKG | failed |
| MTTPVNGSVIPLISLRESRMPSLTDGAIRRALKQVEQTQKPVTLADGEGRGIGRLILFVRPMPTRVIAYWLVQQWRAGARSRKKIGAYPSMSLNQARNIFDRDFADAIQKGRSIKALGDTRAGTLGDLFDAYIAHLKSSGKKSWKEAEKGLNKVADTLGRHRPARDIEPHEIVDIIRPIYGRGTRSMADHVRGYLRAAFSWGIKSEHDYRHASPRRFGLTKNPAAGIPSEPYVPGNRWLDEEEFLRLYRWLECPDTPVHPPYTRAVRLLMLTGQRVEEIARLHIAQWDAKERIIDWSTTKNGKPHAIPVPDLAAELLESIKPNNYGWFFPSAFDPSKPVAHNTLYSFMWRQRERGVIPVVTNRDLRRTWKTLAGKAGLSKEIRDRLQNHTLQDVSSKAYDRWNYMPEKRAAMKQWNSFVRSVLTPDRLTSAA | failed |
| MTGIFLQAFVYLVAAVIAVPLAKRLGLGSVLGYLIAGVVIGPIIGLVGEETTTIQHFAEFGVVMMLFLVGLELEPKMLWAMRNRLMGLGGLQVGGTVAAIMGIALYFEQPWTIALAIGLIFALSSTAIVLQTFSEKGLTKTEGGKNAFSVLLFQDIAVIPMLAFIPLLALPELVEQAQNAVQTAAQHHDDLNLVADLPGWAYGIVITASIAIVVVGGHFLSRPLLKYVASSGLREIFTATALMLVIGIAALMSLVGLSPALGTFLAGVVLANSEFRHELESNIEPFKGLLLGLFFITVGAGINFSVLFGDFWLIMALTIGVMVLKALVLFILALIFRVKGSNRWLFTLSLAQAGEFGFVLLSFSVQNHVIPFELSQTLALVVAISMFLTPGLFILFDRVILPRFETQSNERESDTIEETGTVIIAGIGRFGQIVNRLLVSNGVTTVVLDHQANQVDNMRQIGTRAYFGDATRPDMLHTAGIEHAAALVVAIDNQESSVELVKYVKHTYPKVKIIARAFDRGHGYLLRQAGADVIESETYHSALEMGGHAMKALGIHPFFVEQQKDTYKRVEARKSEMLYQAWEDDSEGERFDNNFRELFIQLEEKMAEEMRKDRHDKLSRSERGWTPPPKGYAENFDGENVQDITPPKEEAI | failed |
| MNRREVRCAFSASKAARAQLLLRGKVRLEPLPTRPRTVLGLDASYSAKDGVGVGAAVLISLETLEPVDCRVYISRVCIPYIPGLLAFRELAVMAPAAAALSAEADVVMVDGHGIAHPRRFGIASHVGVILERPSIGVAKKKLVGTLVEGPGGMYVVQDGERLAIVLGTRPREVYVSPGHRITLEEAASIARATIRPGGWMPEPTRLADVISKALKTIIGGQSLINSALASLCRVKLGPRLEELERPLRRAGLEVELEHHHHHH | failed |
| METKQDNLIYVWDAYCGWCYGFSESIKGFYKNHTEVPLTVLCGGLFLDNLPMKNFSYIEEGNKRINQLTGAEFGPSYQKLVEEGTFKMNSKDAAIGFSALRSLAPDRLLEFTSAMQKAFYYEGQSLSDPETYRKIAIEHGLDPEQVLERLNAQETIIDVQNDFNKVRQLGVNSYPSLLLQKDNQIIPIGGGVMTPDKIEARFKNLY | failed |
| MKPENFTSEKIPASLDEVSLNYFAHDGNKREYLTYIPSGYSHTIEAPVILNFHGFGGTASGQLALSDWRDLAEKHGIILIYPQGLELQKGGSHWNPDPVSSDSKSISDDLGFVRRLLKRISKNYSIDKSRVYATGYSNGAGMAYGLAHHMPDLIAGIAPVSGLMNDEYLSTTSGGSPVGLISFNGEEDWVRPVNGINGYLASVADISSHWARENSSTQSIAEQFAQANGDRIERTSYSRDDGLTTVEQYLVDRGGHEWFDLDIEGKDLNQLAWQFLSRLRKQD | failed |
| MDKYLSANSLEGVIDNEFSMPAPRWLNTYPAGPYRFINREFFIIAYETDPDLLQAILPPDMELLEPVVKFEFIRMPDSTGFGDYTESGQVVPVRYKGEEGGFTISMFLDCHAPIAGGREIWGFPKKLAKPKLFVEEDTLIGILKYGSIDIAIATMGYKHRPLDAEKVLESVKKPVFLLKNIPNVDGTPLVNQLTKTYLTDITVKGAWTGPGSLELHPHALAPISNLYIKKIVSVSHFITDLTLPYGKVVADYLA | not failed |
| MKSAELKYLDFEDFTKLIALAKEKINPIYSSSFMIYIAAMTGMRFSELLGLTWDNVDFEKGQIYVKRTWDIYKNNFAPTKNDQSVRFLAIDSSTMQVMINYKEQQEKLLKRLEIEPEHPFVFYNIKNGLITNNSLNKQLRNMCKKLGFKKIITCHGLRHTHASTMLYKGINILYVSKRLGHSSLNVTMSVYSHILKLEHHHHHH | failed |
| MSVTLVNNENNERYEFETIESTRGPKAVDFSKLFETTGFFSYDPGYSSTAGCQSKISYVNGKKGELYYRGHRIEDLVAKYKYVDVCKLLLTGELPKNQDESLEFELELRHRSFVHESLLNMFSAFPSNAHPMAKLSSGVSILSTLYSTHQNMHTEEDYQTMARRIVAKIPTLAAICYRNEVGAPIIYPDIARSYVENILFMLRGYPYSRLKHTTQGEVEITPLEVEAFDKILTLHADHSQNASSTTVRNVASTGVHPYAAISAGISALWGHLHGGANEKVLLQLEEIGDVKNVDKYIARVKDKNDNFKLMGFGHRVYKSYDPRAKILKGLKDELHQKGVKMDERLSEIAAKVEEIALKDEYFIERNLYPNVDFYSGTILRALKIPVRFFTPVFVIGRTVGWCAQLLEHVKSPQARITRPRQVYVGD | failed |
| SNGQADRCDRTAYVSGLQPTISDIELFEVFNRVAHVEKVIVRNGAARHALIVFKTVQGLYQVLVNFQGTTLHGRQLHIRPLRESSHANSEAISTMFEKVKHQGNSGNSSYRQEHSFPEYRNQNPQASSYLPPNPRGHRNSTGCFNGGGGGYGRRRSAGGYNQYNQNKYPNETYPGMTLFDNHPVQQYSGFNPIDFRFDDYVEGAKRFDNLANLIRSSTPTDPFANYQKPCESTSTSRSRTNSAKDQKHGPPTWKMELQIKKDDHHHAGGGAATTGQKLSPQQFLAQIAQRQQSEQNADEVAKKKRPNLSVINPSLFYEQYPRTSSPVVYASKSKPSGHYDDKIASPHDPAVLAYSRLRVPQSAFDSLSPIDTDNCSFITKHLGPTTGVKRDLTNDELSDMIVSTGNLRINPTNIDHHDEPAPWSPLKRLRAESGSLSTAQVASPEFSPIKPKTMEFHETEDDVFETGPPPTYLSEGNENAEKKCVEQPKINYDDINNSRLPSNSHSAAPNSEKKHFVFPEYPMCRHSSVPSIAHLVGDLSDFCPHATADEKMLLDEASSIIENTTPAVSTAPAAAPGATMLQI | not failed |
| QKDANASSEFYINKLGQTQELEDQQTYKLLAARVLIRENKVEQSAALLRELGELNDAQKLDRALIEARISAAKNANEVAQNQLRALDLNKLSPSQKSRYYETLAIVAENRKDMIEAVKARIEMDKNLTDVQRHQDNIDKTWALLRSANTGVINNASDEGNAALGGWLTLIKAYNDYIRQPVQLSQALQSWKNAYPNHAAATLFPKELLTLLNFQQTNVSQIGLLLPLSGDGQILGTTIQSGFNDAKGNSTIPVQVFDTSMNSVQDIIAQAKQAGIKTLVGPLLKQNLDVILADPAQIQGMDVLALNATPNSRAIPQLCYYGLSPEDEAESAANKMWNDGVRNPLVAMPQNDLGQRVGNAFNVRWQQLAGTDANIRYYNLPADVTYFVQENNSNTTALYAVASPTELAEMKGYLTNIVPNLAIYASSRASASATNTNTDFIAQMNGVQFSDIPFFKDTNSPQYQKLAKSTGGEYQLMRLYAMGADAWLLINQFNELRQVPGYRLSGLTGILSADTNCNVERDMTWYQYQDGAIVPVAN | failed |
| AIAASLSDQSGSIGSEQTRPSGAIPVESLPPQALEQLIASLQQEVEQLADALQQLNFANQRWTLCKQSIEAFAEETTRVDLPGAQSRATDAISSTASAKPETSVEVNQNQRLLVPLSRSLYVLGRVINPERCLIDIGTGYHVERKLADAAEFFDRRLKHVRGSMRQLTLKIDQNQQQMQTIREILVRKLAGAQQAAEHT | failed |
| MKKFVTRRLGRKKRRDTEIVLPTKDDDCREEHGSEVSCMEDVEEMLQELSMKGEFVFGSFWRQGDSAANDFDFGNSQYEIANYKDHRSLSLLITQDVLLER | failed |
| MVQVPPPPPTGFADHASAAEDREAGDGPAPSIAEGLSAALFQSVVEALPVGTALLRDGVIVHANATLAGQIGETIDTLIGSPLTSYLTPADALAVQKVVEGAIALHGGVPVRRIAHIRHISGSERVYSLRFSPLDNGPHPLLVVITRDMTAQVAAENALRAAEGKYRAIFENAVEGIYQSTPDGTYLDVNPALARIYGYASPAELIAHFTDIASQLYVDGTKRGEFQRLMRETGEVRDFTAEVWRCDGHTIWITENARCVRGPDNEVLYYEGTVEDITAQRQSQETMRLLGKVFTSIAEGIVLLERDLTVRTVNPAFEAMTGLLRQDMEGRPARLFASGLHENDFLATVAAEVDRAGLWRGEIWGERREGPPYSGEMTVTAVRTRAGETTHYVAAITDITKRKRDEEHIRFQANFDMLTHLPNRHLIMDRLEQAMHQAQRTGRQVCVMFLDLDRFKQINDSYGHSAGDEVLKLTARRLRNCVRISDSVGRLGGDEFIVILSNVEDQHAGAYIAEKILYSLSEPFPIGGTEVFCIPSVGITYFPDHGETAPDLLRNADVAMYHAKQGGERRYAIFTPDMARRSLALLTMESDLRHALARDEFELHFQPKVRADLTLIGAEALIRWRHPEKGLINPGDFIPLAEESGLILPIGRWTLREACDRVMSWRAEGLTIPSVSVNVSPRQFQDQTLVETVRQILVETGLEPEALDLEITETVMTGDVEHAVGTLRALKDLGVTLSIDDFGTGYSSLNYLKTFPIDTLKIDQTFVRDVLHSGKDAAIVSTIIALARNLGFSVVAEGVEEIEQAEFLGSRDCQNFQGFLYSRPLPPAEFTTFLRTAKLETATPPDLVPSIAPGP | failed |
| MERHVNYTLIGGLFFLCLVCMVGFILWLGHLGLDDGKYYEYVVYTDKDLGGIATNSPINYKGIQVGNVIKVGFAKDKVGVVRLDLMIKSSVKIRKDSKVAVSSRGFMGLKFLALEQSHNEEFYGSGDKGERILIFKEGLMDRLSGDANQVVQEVMKAIRNVNRILDDENVEKFKHILASVDDLIANLDSRKTQFDSLISNANNLVSNVNNVALDVDKRLKQGQYDFKAMFTPLIMQAQLSLRNIDNFVEKGSALIDKFDANPYKTIFGERK | failed |
